In US7056679B2, “Target specific screening and its use for identifying target binders” (Antyra, Inc., priority 2001, dated 2006):

Tests used:
DGI-2 = target: T1, DGI-2 (Homo sapiens, UniProt Q15004); experiment: ELISA analysis of phage on DGI-2 polypeptide (specific binding); conditions: for DGI-2 (OD): binding to DGI-2 polypeptide (specific binding), phage ELISA units read at 405 nm; for DGI-2/LDH (OD): ratio of specific binding to non-specific binding
T1 construct: encompassed the entire DGI-2 open reading frame (ORF); His-tag of vector pIVEX2.3-MCS (inferred from the vector and from the reverse primer lacking a stop codon); made in house; host or cells: cell-free in vitro translation (Rapid Translation System RTS, Roche; E. coli lysate)
T1 sequence (Q15004 1-111): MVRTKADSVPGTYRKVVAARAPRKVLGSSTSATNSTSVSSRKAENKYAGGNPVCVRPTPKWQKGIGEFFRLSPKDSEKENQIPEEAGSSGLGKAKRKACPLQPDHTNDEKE
Procedure: To verify that the selected target binders bound to DGI-2, Elisa assays were performed with recombinant DGI-2. DGI-2 was subcloned and expressed using conventional methods as described below.
Protein yields were satisfactory, but most of protein was found in inclusion bodies. Next, DGI-2 was expressed using an in vitro translation system (Rapid Translation System RTS 5000, Roche Diagnostics GmbH, Mannheim Germany). For this system, the DGI-2 ORF was cloned into the pIVEX2.3-MCS vector (Roche Diagnostics) using restriction sites Nde I and Hind III, which were added to DGI-2 by PCR. […] The primers used for the PCR amplification were as follows: […]
(§1) For analysis of individual target binders, colonies were picked and phage prepared as described above using helper phage, M13KO7. Ninety-six-well microtiter plates were coated with 500 ng/well of specific target protein, 500 ng/well lactate dehydrogenase (LDH) irrelevant or non-specific target, 500 ng/well of positive control antibody raised against ETAG, and negative control of non-fat milk powder-PBS 2% at 4° C. overnight. Plates were then blocked with 350 microliters/well PBS containing 2% non-fat milk for 1 hr at room temperature. One hundred microliters per well of phage from isolated clones were added and plates were incubated at room temperature for 2 hr after centrifuging samples for 20 minutes at 3500 rpm at 4° C. The phage solution was then removed, and the wells were washed three times with PBS at room temperature. Antibody raised against M13 conjugated to horseradish peroxidase (Pharmacia) was diluted 1:3000 in PBS-Tween and added to each well (100 μl/well). Incubation was for 1 hr at room temperature, followed by washing with PBS-(0.5%) Tween 3 times as described. Color was developed by addition of ABTS solution (100 μl/well; Boehringer, Indianapolis, Ind.). Plates were analyzed at 405 nm. A clone was considered “positive” if the A405 of the well was ≧2-fold over background.

[1] = tested on: lactate dehydrogenase (LDH); experiment: ELISA analysis of phage on LDH (irrelevant, non-specific target); type: binding; conditions: peptide binding to LDH polypeptide (non-specific binding); phage ELISA units read at 405 nm
Procedure: as §1

E-tag antibody = experiment: ELISA analysis of phage on antibody raised against ETAG (positive control); conditions: peptide binding to E-tag antibody; phage ELISA units read at 405 nm
Procedure: as §1

Substance	DGI-2 (OD) (DGI-2)	DGI-2/LDH (OD) (DGI-2)	LDH (OD) [1] [OD]	ETAG (OD) (E-tag antibody)
RKGWGVFCIPGLRFCDWSDP (DGI-2-20R-3-B4; listed as Escherichia coli)	8.4	8.6	1.0	17.4
RCFQDGRMLALSPTYLIRRSVSPLVVGPLPTP (DGI-2-40F-3-A24; listed as Escherichia coli)	1.3	1.4	0.9	11.7
PAMGHCMQVLGPVLEGRSRDQVGR (DGI-2-20R-4-G6; listed as Escherichia coli)	1.6	1.4	1.1	11.5
MSSTAWTDRILQRGIGLGPV (DGI-2-20R-4-F1212; listed as Escherichia coli)	4.0	3.3	1.2	9.8
GNKCFPPHDLFWDPCDQLQS (DGI-2-20R-4-F6; listed as Escherichia coli)	2.3	2.3	1.0	13.2
LFSATGCALMSGFCLGSDGS (DGI-2-20R-3-C1; listed as Escherichia coli)	8.2	8.3	1.0	14.0
MGSLGPFGNTNSLASGIGSVRNRPLLPLHGSP [DGI-2-40F-3-D72]	3.1	2.8	1.1	14.0
GWSDFVATGSWSGQVSAALN (DGI-2-20R-4-F120; listed as Escherichia coli)	13.6	12.2	1.1	16.5
QVGGMTQVGATVLSVVTGRGSCDGEDAWYPPGVTVGLGLC (DGI-2-40F-4-F97; listed as Escherichia coli)	6.7	6.4	1.0	14.0
VGHLLSRCAHHSPGMGASPYG (DGI-2-20F-PP-B11; listed as Escherichia coli)	2.6	2.7	1.0	40.8
MFQDVACDLWHSVRCLRRDV (DGI-2-20R-3-B3; listed as Escherichia coli)	4.9	4.8	1.0	16.1
LSRIWRGVIESAREVESRGI (DGI-2-20F-3-B1; listed as Escherichia coli)	1.2	1.2	0.9	11.4
DRSRAPLCADKSGRWQRYRR (DGI-2-20F-PP-C10; listed as Escherichia coli)	2.7	3.1	0.9	8.6
SVSGGGVFGTGGRVRHQVSG (DGI-2-20F-PP-C5; listed as Escherichia coli)	2.2	2.4	0.9	33.9
GHGAGDWAAELFVCPVAFLTGFAWR (DGI-2-20R-4-H2; listed as Escherichia coli)	9.9	9.2	1.1	12.9
SSVWATWGSDLRTFGSVGFL (DGI-2-20F-PP-C7; listed as Escherichia coli)	3.0	2.6	1.1	11.0
VRAVYSRDAYNEVGRWMRVGI (DGI-2-20F-PP-D9; listed as Escherichia coli)	2.9	2.9	1.0	9.0
MGVVLECEGGWSIPGQTCYF (DGI-2-20R-3-C7; listed as Escherichia coli)	5.1	5.1	1.0	18.0
VQFAMTLSSRLWQHARHPLTDDAPPTVSFGTRRETLAGKA (DGI-2-40F-3-D3; listed as Escherichia coli)	0.9	1.1	0.9	0.9
ACSVGTALVFPQRWWYLGRS (DGI-2-20R-3-D6; listed as Escherichia coli) [DGL-2-20R-3-D6]	2.2	2.1	1.1	12.9
VQSGRDLGGLLRGGTGTEASP (DGI-2-20F-PP-D3; listed as Escherichia coli)	2.2	2.4	0.9	15.0
LGNASSLWFLRSVQESGVR (LGNASSLIPFLRSVQESGVR; DGI-2-20F-3-C5; listed as Escherichia coli)	1.0	1.0	0.9	17.7
LGPAHPHGRVCRVSSS#S (LGPAHPHGRVCRVSSSS; DGI-2-20F-PP-B9; listed as Escherichia coli)	1.9	2.7	0.7	5.0

Further lines, with some results ahead:

DGI-2 (OD) (DGI-2)	DGI-2/LDH (OD) (DGI-2)	LDH (OD) [1] [OD]	Substance	ETAG (OD) (E-tag antibody)
5.6	5.3	1.1	VVRQGCMAFSGLCSGVTESE (DGI-2-20R-3-C8; listed as Escherichia coli)	21.1
1.6	1.6	0.9	WAGSTDLWQLWSLWVKPELR (DGI-2-20F-3-B7; listed as Escherichia coli)	16.4
3.3	3.1	1.0	VCSGGKGTWLEIPDRVRSST (DGI-2-20F-PP-A22; listed as Escherichia coli)	44.1
2.5	2.6	1.0	S#ARSLMTGVVAVCIVWRGP (SARSLMTGVVAVCIVWRGP; DGI-2-20F-PP-E8; listed as Escherichia coli)	36.3
9.5	9.0	1.1	LVIGQRSFLSACSLFDGFCV (DGI-2-20R-4-H814; listed as Escherichia coli)	13.5
8.7	8.1	1.1	CGGWGAMWEAWVQGLNGAGC (DGI-2-20R-3-D4; listed as Escherichia coli)	18.9
2.3	2.8	0.8	QMIFSKGNWLAHPEGGVALGLSRESQLFRSCREFGYCMGPM [DGI-2-40F-3-C6]	10.1
2.6	2.6	1.0	ALRSLGSGGFGWQAGRASPQGMTHFPYFGWSGMPTARVRP (DGI-2-40F-3-D7; listed as Escherichia coli)	10.3
6.2	5.9	1.1	RRILPWSFPGCGRMC (DGI-2-20R-3-A10; listed as Escherichia coli) [DGJ-2-20R-3-A10]	16.4
1.4	1.2	1.1	LSVFRPGQFPHVGARGVSRT (DGI-2-20R-4-G32; listed as Escherichia coli)	11.0
1.5	1.4	1.1	VAFGEQJRVAMAGTLWQRWR (VAFGEQIRVAMAGTLWQRWR; not fully specified; non-natural residue J; DGI-2-20R-3-D5; listed as Escherichia coli)	8.5
2.7	2.3	1.2	WVVALRRIRLGLRRGVECLL (DGI-2-20F-PP-D5; listed as Escherichia coli)	33.6
